US20060239990A1, “Protein Arginine N-Methyltransferase 2 (PRMT-2)” (priority 2003, published 2006)

Tests used:
IκB-α [1] = assay: Immunoblot of nuclear IκB-α in transfected 293 cells; format: cell-based, human; conditions: transfected cells stimulated with TNF-α, vs PRMT2-N
Procedure: Small-scale preparation of nuclear extracts. A modified Dignam procedure (Dignam et al., Nucleic Acids Res. 11: 1475-89 (1983)) was used to prepare nuclear extracts from 293 cells. Cells were harvested, washed with PBS, resuspended in 1 ml Dignam buffer A, and transferred to pre-chilled microfuge tubes, which were spun at 1000 rpm for 1 minute. The supernatant was aspirated thoroughly, and pellets were carefully resuspended to avoid frothing, in 60 μl modified Dignam buffer A containing 0.1% Nonidet P-40 (NP40). Samples were incubated at 4° C. for approximately 10 minutes, and microcentrifuged for 10 minutes at 4° C. The cytoplasmic extract supernatant was diluted in 3 volumes of modified Dignam buffer D and frozen quickly. The pellets were resuspended in 40 μl Dignam buffer C. Samples were incubated for 15 minutes at 4° C. on a tumbler, and centrifuged again for 5 minutes at 4° C. The supernatant was diluted with 6 volumes of modified Dignam buffer D. Samples were frozen quickly in aliquots and stored at −70° C.
Western Blotting. Proteins resolved by SDS-polyacrylamide gel electrophoresis (PAGE) were transferred to polyvinylidene difluoride (PVDF) membranes. […]

IκB-α [2] = assay: Co-immunoprecipitation with endogenous IκB-α in 293 cells; format: binding, human; conditions: HA-tagged constructs in 293 cells
From the text: A polyclonal antibody to recombinant PRMT2 was used to examine the association between endogenous PRMT2 and IκB-α in vivo. […] The domain of IκB-α required for association with PRMT2 was mapped using in vivo immunoprecipitation assays where HA-tagged PRMT2 was coexpressed with truncation mutants of His-tagged IκB-α (FIG. 5B) in 293 cells. The ankyrin domain was both necessary and sufficient for this association (FIG. 5D, lanes 1 and 2). The domain of PRMT2 that interacted with endogenous IκB-α was mapped by immunoprecipitation following expression HA-tagged PRMT2 truncation mutants (FIG. 5C). […] When the ratios of PRMT2 or PRMT2-A binding to IκB-α were compared, both interacted with IκB-α with similar affinity.

STAT3 = STAT3 arginine methylation in transfected HEK293 cells; format: cell-based; conditions: 24 hr after transfection, α-metR immunoblot
Procedure: Vascular smooth muscle cells (VSMC) were prepared from the thoracic aorta of 12-week-old-male wild-type and PRMT-2^−/− mice by the explant method. Mouse embryo fibroblasts (MEFs) were prepared from 13.5-day wild-type and PRMT-2^−/− embryos. VSMCs and MEFs were cultured in Dulbecco's modified Eagle's medium (DMEM) containing 10% fetal calf serum (FCS) at 37° C. in a humidified atmosphere of 95% air-5% CO2. The integrity of PRMT-2 expression in the established VSMCs and MEFs lines was confirmed by Western and immunofluorescence analysis (data not shown). Quiescent VSMC (3-5th passages) that had been serum-starved for 48 hr were used in the following experiments. HEK293 cells were also grown in DMEM plus 10% FCS and were transiently transfected with FuGENE6 transfection reagent (Roche Applied Science, Indianapolis, Ind.) according to the manufacture's protocol. For each transfection, 2 μg of expression construct for mouse PRMT-2 and 8 μg for mouse STAT3 were used. After 24-48 hr of transfection, cells were used for the following experiments.
Immunoprecipitation of STAT3 was performed as follows. […]

Chain of IκB-α (P25963 whole entry, the tested form may be a part): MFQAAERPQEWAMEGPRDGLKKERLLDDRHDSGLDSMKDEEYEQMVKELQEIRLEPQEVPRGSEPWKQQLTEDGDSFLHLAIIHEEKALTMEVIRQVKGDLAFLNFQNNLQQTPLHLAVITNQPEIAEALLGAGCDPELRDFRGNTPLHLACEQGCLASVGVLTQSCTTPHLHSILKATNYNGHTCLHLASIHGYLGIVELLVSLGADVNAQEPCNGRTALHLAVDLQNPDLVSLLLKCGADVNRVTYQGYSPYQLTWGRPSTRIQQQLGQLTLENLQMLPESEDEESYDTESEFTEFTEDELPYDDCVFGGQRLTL

B1: PRMT2: human PRMT-2 polypeptide, SEQ ID NO:2, expressed from pVR1012 vector with HA-tag (protein, listed as Homo sapiens)
chain: MATSGDCPRSESQGEEPAECSEAGLLQEGVQPEEFVAIADYAATDETQLSFLRGEKILILRQTTADWWWGERAGCCGYIPANHVGKHVDEYDPEDTWQDEEYFGSYGTLKLHLEMLADQPRTTKYHSVILQNKESLTDKVILDVGCGTGIISLFCAHYARPRAVYAVEASEMAQHTGQLVLQNGFADIITVYQQKVEDVVLPEKVDVLVSEWMGTCLLFEFMIESILYARDAWLKEDGVIWPTMAALHLVPCSADKDYRSKVLFWDNAYEFNLSALKSLAVKEFFSKPKYNHILKPEDCLSEPCTILQLDMRTVQISDLETLRGELRFDIRKAGTLHGFTAWFSVHFQSLQEGQPPQVLSTGPFHPTTHWKQTLFMMDDPVPVHTGDVVTGSVVLQRNPVWRRHMSVALSWAVTSRQDPTSQKVGEKVFPIWR
modifications: HA tag
IκB-α [1]
  increase in nuclear IκB-α protein levels over the mutant control: ~8 fold
IκB-α [2]
  association with endogenous IκB-α: interacted
STAT3
  Stat3 methylation: endogenous methylated STAT3 was detected
